Consider 34 molecules from patent EP4682166A1 (Guangzhou Enmai Biotechnology Co., Ltd, dated 2026).

Residue numbers refer to the chain shown, from its start. Names may count otherwise.

T1: human NMI (N-myc Interacting protein), recombinant protein (human, UniProt Q13287 1-307, limits assumed)
T1 construct: Gene ID: 9111; also called hNMI; antigen
T1 sequence (looked up): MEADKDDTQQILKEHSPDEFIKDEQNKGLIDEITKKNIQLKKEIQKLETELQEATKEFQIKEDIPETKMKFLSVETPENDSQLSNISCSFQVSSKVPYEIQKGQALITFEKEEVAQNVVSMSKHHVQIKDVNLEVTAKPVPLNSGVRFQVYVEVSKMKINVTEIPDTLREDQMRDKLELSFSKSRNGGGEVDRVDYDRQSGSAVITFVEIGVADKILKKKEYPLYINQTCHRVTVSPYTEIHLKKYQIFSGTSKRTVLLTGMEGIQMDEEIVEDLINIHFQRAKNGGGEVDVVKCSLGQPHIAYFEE

B1: 98G10-4 (antibody, V domains shown)
VH: QEQLEESGGDLVKPEGSLTLTCKASGFSFSASYWICWVRQAPGKGLEWIACIYGGSSGSAYYASWAKGRFTISKTSSTTVTLQMTSLTAADTATYFCARAGYYNYGSAGDIYPSSFKLWGPGTLVTVSS
VL: DIVMTQTPASVEAAVGGTVTINCQASQSISTALAWYQQKPGQPPKLLIYTASKVASGVPSRFSGSGSGTQFTLTISDLEPADAATYYCQNYYYSSSSITFGGGTEVVVK
notes: also called 98G10 T23K (VH), C80P (VL)
B2: 98G10-6 (antibody, V domains shown)
VH: B1 VH with K23T, T81Y
VL: B1 VL with T18R
notes: also called 98G10 T81Y (VH), T18R/C80P (VL)
B3: 98G10-9 (antibody, V domains shown)
VH: B1 VH with T81Y
VL: B1 VL with T18R, Q70D
notes: also called 98G10 T23K/T81Y (VH), T18R/Q70D/C80P (VL)
B4: 98G10-3 (antibody, V domains shown)
VH: B1 VH with K23T, T81Y
VL: B1 VL
notes: also called 98G10 T81Y (VH), C80P (VL)
B5: 98G10-10 (antibody, V domains shown)
VH: B1 VH with T75D, T81Y
VL: B1 VL with T18R, Q70D
notes: also called 98G10 T23K/T75D/T81Y (VH), T18R/Q70D/C80P (VL)
B6: 98G10-7 (antibody, V domains shown)
VH: B1 VH with T81Y
VL: B1 VL with T18R
notes: also called 98G10 T23K/T81Y (VH), T18R/C80P (VL)
B7: 98G10-11 (antibody, V domains shown)
VH: B1 VH with K23T
VL: B1 VL with Q70D, P80C
notes: also called 98G10 Q70D (VL)
B8: 98G10-12 (antibody, V domains shown)
VH: B1 VH with K23T, T75D
VL: B1 VL with P80C
notes: also called 98G10 T75D (VH)
B9: 98G10-5 (antibody, V domains shown)
VH: B1 VH with K23T
VL: B1 VL with T18R
notes: also called 98G10 T18R/C80P (VL)
B10: 98G10-8 (antibody, V domains shown)
VH: B1 VH with T75D, T81Y
VL: B1 VL with T18R
notes: also called 98G10 T23K/T75D/T81Y (VH), T18R/C80P (VL)
B11: 39B4 mutant G106Y (VH) (antibody, V domains shown)
VH: QEQLVESGGGLVQPEGSLTLTCTASGFSFSSSYWICWVRQAPGKGLEWIACIYAGTSGSTYYASWAKGRFTISKTSSTTVDLQMNSLTAADTATYFCARAGYYTYYAGVYIYPSSFKLWGPGTLVTVSS
VL: B1 VL with I2V, N22K, Q27E, S30G, T31N, T50S, K53N, V54L, P80C, N90S
B12: 39B4 mutant V109K (VH) (antibody, V domains shown)
VH: B11 VH with Y106G, V109K
VL: B1 VL with I2V, N22K, Q27E, S30G, T31N, T50S, K53N, V54L, P80C, N90S
B13: 39B4 mutant V109Q (VH) (antibody, V domains shown)
VH: B11 VH with Y106G, V109Q
VL: B1 VL with I2V, N22K, Q27E, S30G, T31N, T50S, K53N, V54L, P80C, N90S
B14: 39B4 mutant A107Q (VH) (antibody, V domains shown)
VH: B11 VH with Y106G, A107Q
VL: B1 VL with I2V, N22K, Q27E, S30G, T31N, T50S, K53N, V54L, P80C, N90S
B15: 39B4 mutant G106R (VH) (antibody, V domains shown)
VH: B11 VH with Y106R
VL: B1 VL with I2V, N22K, Q27E, S30G, T31N, T50S, K53N, V54L, P80C, N90S
B16: 39B4 mutant Y102F (VH) (antibody, V domains shown)
VH: B11 VH with Y102F, Y106G
VL: B1 VL with I2V, N22K, Q27E, S30G, T31N, T50S, K53N, V54L, P80C, N90S
B17: 39B4 mutant A107R (VH) (antibody, V domains shown)
VH: B11 VH with Y106G, A107R
VL: B1 VL with I2V, N22K, Q27E, S30G, T31N, T50S, K53N, V54L, P80C, N90S
B18: 94C4 mutant A32K (VH) (antibody, V domains shown)
VH: QSLEESGGGLVQPEGSLTLTCKASGFDFSSNKMCWVRQAPGKGLEWIACISSASSGSSGSTYYASWAKGRFTISKTSSTTVTLQMTSLTAADMATYFCARDGYDLWGPGTLVTVSS
VL: QVLTQTPSSVSAAVGGTVTISCQSSPSVYNNYLSWFQQKPGQSPKLLIYRVSTLASGVPSRFSGSGSGTQFTLTISGVQCDDAATYYCAGGYDSASDTYVFGGGTEVVVK
B19: 94C4 mutant D101M (VH) (antibody, V domains shown)
VH: B18 VH with K32A, D101M
VL: B18 VL
B20: 94C4 mutant D101E (VH) (antibody, V domains shown)
VH: B18 VH with K32A, D101E
VL: B18 VL
B21: 94C4 mutant D101Q (VH) (antibody, V domains shown)
VH: B18 VH with K32A, D101Q
VL: B18 VL
B22: 94C4 mutant S52K (VH) (antibody, V domains shown)
VH: B18 VH with K32A, S52K
VL: B18 VL
B23: 94C4 mutant S29D (VH) (antibody, V domains shown)
VH: B18 VH with S29D, K32A
VL: B18 VL
B24: 94C4 mutant D101S (VH) (antibody, V domains shown)
VH: B18 VH with K32A, D101S
VL: B18 VL
B25: 94C4 mutant D97K (VL) (antibody, V domains shown)
VH: B18 VH with K32A
VL: B18 VL with D97K
B26: 94C4 mutant D101K (VH) (antibody, V domains shown)
VH: B18 VH with K32A, D101K
VL: B18 VL
B27: 98G10 mutant G55H (VH) (antibody, V domains shown)
VH: B1 VH with K23T, G55H
VL: B1 VL with P80C
B28: 98G10 mutant G55W (VH) (antibody, V domains shown)
VH: B1 VH with K23T, G55W
VL: B1 VL with P80C
B29: 98G10 mutant S56P (VH) (antibody, V domains shown)
VH: B1 VH with K23T, S56P
VL: B1 VL with P80C
B30: 98G10 mutant S57Q (VH) (antibody, V domains shown)
VH: B1 VH with K23T, S57Q
VL: B1 VL with P80C
B31: 98G10 mutant S56N (VH) (antibody, V domains shown)
VH: B1 VH with K23T, S56N
VL: B1 VL with P80C
B32: 98G10 mutant S57K (VH) (antibody, V domains shown)
VH: B1 VH with K23T, S57K
VL: B1 VL with P80C
B33: 98G10 mutant G58V (VH) (antibody, V domains shown)
VH: B1 VH with K23T, G58V
VL: B1 VL with P80C
B34: 98G10 mutant S57R (VH) (antibody, V domains shown)
VH: B1 VH with K23T, S57R
VL: B1 VL with P80C

In the first assay the target is T1, human NMI (N-myc Interacting protein), …. The experiment in a line: ELISA EC50 against parent 98G10.
Take B1: the “Fold decrease in affinity” value was found to be 1.07 fold.

B2: the “Fold decrease in affinity” value was 1.02 fold.

In the case of B3, the “Fold decrease in affinity” value was 0.72 fold.

With B4, the “Fold decrease in affinity” value worked out at 1.06 fold.

As to B5, the “Fold decrease in affinity” value was determined as 1.02 fold.

Take B6: the “Fold decrease in affinity” value was found to be 0.81 fold.

Consider B7, for which the “Fold decrease in affinity” value worked out at 0.4 fold.

Turning to B8, the “Fold decrease in affinity” value was 0.45 fold.

B9: the “Fold decrease in affinity” value is 1.44 fold.

Consider B10, for which the “Fold decrease in affinity” value was 0.64 fold.

Another assay has the same target. Description: ELISA EC50 against parent 39B4. On the technique in general: ELISA stands for enzyme-linked immunosorbent assay.
With B11, the “Fold decrease in affinity” value is over 500 fold.

On to B12, for which the “Fold decrease in affinity” value is over 500 fold.

On to B13, for which the “Fold decrease in affinity” value is over 500 fold.

For the molecule B14, the “Fold decrease in affinity” value was over 500 fold.

Consider B15, for which the “Fold decrease in affinity” value is over 500 fold.

For B16, the “Fold decrease in affinity” value is over 500 fold.

B17: the “Fold decrease in affinity” value was over 500 fold.

The target is the same in the next assay. Description: ELISA, binding to hNMI.
As for B1, the EC50 amounted to 0.177 nM.

In the case of B2, the EC50 was 0.168 nM.

As to B3, the EC50 was 0.119 nM.

In the case of B4, the EC50 is 0.176 nM.

As for B5, the EC50 is 0.168 nM.

For the molecule B6, the EC50 was 0.133 nM.

In the case of B7, the EC50 was determined as 0.0659 nM.

B8: the EC50 stood at 0.0746 nM.

Regarding B9, the concentration for a half-maximal effect (EC50) stood at 0.238 nM.

In the case of B10, the EC50 came to 0.106 nM.

For another assay the target is unchanged. Description: ELISA EC50 against parent 94C4.
In the case of B18, the “Fold decrease in affinity” value is over 500 fold.

B19: the “Fold decrease in affinity” value was over 500 fold.

Consider B20, for which the “Fold decrease in affinity” value was over 500 fold.

Take B21: the “Fold decrease in affinity” value was over 500 fold.

Consider B22, for which the “Fold decrease in affinity” value is over 500 fold.

For B23, the “Fold decrease in affinity” value is over 500 fold.

For B24, the “Fold decrease in affinity” value is over 500 fold.

As for B25, the “Fold decrease in affinity” value is over 500 fold.

For the molecule B26, the “Fold decrease in affinity” value is over 500 fold.

A further assay shares this target. Description: ELISA EC50 against parent 98G10. The source holds these as a separate data set.
As to B27, the “Fold decrease in affinity” value was over 100 fold.

For the molecule B28, the “Fold decrease in affinity” value is over 100 fold.

With B29, the “Fold decrease in affinity” value is over 500 fold.

With B30, the “Fold decrease in affinity” value was over 500 fold.

As to B31, the “Fold decrease in affinity” value was over 500 fold.

On to B32, for which the “Fold decrease in affinity” value is over 500 fold.

As to B33, the “Fold decrease in affinity” value was over 100 fold.

As for B34, the “Fold decrease in affinity” value was over 500 fold.

What is called EC50 is the concentration at which the effect is half-maximal.
